Assay results reported in patent publication US11807873B2, “Conversion of S-lignin compounds to useful intermediates” (Alliance for Sustainable Energy, LLC, priority 2020, dated 2023).

Tests used:
Test in all cases: purified protein, by the assay type
Settings in all cases: other: 2 μM Ht-VanB, 400 μM NADH, air-saturated HEPES (I = 0.1M), pH 7.5, 25° C, VanA 0.4 μM for vanillate, 1 μM for syringate and 3MGA
[1] = substrate: COc1cc(C(=O)O)cc(O)c1O
Method: (§1) In evaluating the parameters for VA, 0.4 μM VanA was used to ensure steady-state conditions at low concentrations of VA.
(§2) Steady-state kinetic analyses: Kinetic assays were performed by monitoring the consumption of O2 using a Clark-type polarographic O2 electrode OXYG1 (Hansatech) connected to a circulating water bath. Assays with the exception of GalA were performed in 1 mL of air-saturated 40 mM HEPES, 80 mM NaCl (I=0.1 M, pH 7.5) at 25° C. GalA assays were performed in 40 mM MOPS, 80 mM NaCl (I=0.1 M, pH 7.0) at 30° C. The electrode was calibrated daily according to the manufacturer's instructions using air-saturated buffer and water depleted of 02 via addition of sodium hydrosulfite. Stock solutions were prepared fresh daily. The background rate of O2-consumption was recorded prior to initiating the reaction and was subtracted from the measured reaction rate. Steady-state kinetic parameters were evaluated by fitting the Michaelis-Menten equation to the data using the least-squares fitting of LEONORA.
(§3) For VanAB, the standard reaction contained 1 μM VanA, 2 μM Ht-VanB, and 400 μM NADH. […] Stock solutions of the substrates were made in dimethylsulfoxide (DMSO). The final concentration of DMSO in the assay solutions was <1% (v/v). For PcaHG, the standard reaction contained 250 μM PCA. The reaction was initiated by adding 0.1 μM PcaHG. […] The reaction was initiated by adding 0.05 μM GalA.

[2] = substrate: COc1cc(C(=O)O)cc(OC)c1O
[3] = substrate: COc1cc(C(=O)O)ccc1O
Method: as §1, §2, §3

B1: VanAB (vanillate O-demethylase) (Pseudomonas putida KT2440) (protein)
chain: MYPKNTWYVACTPDEIATKPLGRQICGEKIVFYRARENQVAAVEDFCPHRGAPLSLGYVEDGNLVCGYHGLVMGCDGKTVSMPGQRVRGFPCNKTFAAVERYGFIWVWPGDQAQADPALIPHLEWAVSDEWAYGGGLFHIGCDYRLMIDNLMDLTHETYVHASSIGQKEIDEAPPVTTVTGDEVVTARHMENIMAPPFWRMALRGNGLADDVPVDRWQICRFTPPSHVLIEVGVAHAGKGGYHAEAQHKASSIVVDFITPESDTSIWYFWGMARNFAAHDQTLTDNIREGQGKIFSEDLEMLERQQQNLLAHPERNLLKLNIDAGGVQSRKVLERIIAQERAPQPQLIATSANPAGKLP
Km [1]: 150 ± 20 µM
kcat [1]: 0.53 ± 0.02 s⁻¹
kcat/Km [1]: 0.36 ± 0.04 ×10^4 s^−1 · M^−1
Km [2]: 16 ± 2 µM
kcat [2]: 0.89 ± 0.03 s⁻¹
kcat/Km [2]: 5.5 ± 0.6 ×10^4 s^−1 · M^−1
Km [3]: 4 ± 1 µM
